Measured values: PMC8476707
“And” between values parts separate entries of the source, which are not always exact repeats. Equal entries are not always repeated.

Biological target: empty AAV8 capsid (recombinant adeno-associated virus serotype 8, no genome) (adeno-associated virus 8 (AAV8)) (UniProt Q8JQF8)
Assay: native MS; charge detection mass spectrometry (CDMS) of single ions; nanoelectrospray from 200 mM ammonium acetate pH 7.5 after exchange on Micro Bio-Spin columns; 100 ms trapping time; charge versus mass scatterplot; capsid with capsid (multimers of whole particles)

## empty AAV8 capsid (recombinant adeno-associated virus serotype 8, no genome) (from UniProt Q8JQF8 1-738) (complex)
  percent of ions that are capsid dimers: 3.8%
  percent of ions that are capsid trimers: 0.8%
  stoichiometry N: 2 and 3
